This note sets out measurements from the supplement of paper PMC5998384.

For data set [1], the system named is HeLa Kyoto. Put plainly: solubility in G1/S (NP-40 vs SDS abundance) (log2 ratio); higher = more soluble. As to conditions: cell cycle stage: G1/S.
In data set [2] the test system is HeLa Kyoto. Put plainly: melting temperature (median over replicates), in situ; higher = more thermally stable.
In data set [3] the test system is HeLa Kyoto. Put plainly: solubility change mitosis vs G1/S (difference of NP-40 vs SDS log2 ratios) (log2 ratio difference); higher = more soluble in mitosis.
For data set [4], the system named is HeLa Kyoto. Put plainly: thermal stability score vs G1/S (z-score of summed log2 fold changes over temperatures); higher = more thermally stable than in G1/S.
Setting [5] is: cell cycle stage: early G1 (4.5 h after nocodazole release).
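For melting temperature (median over replicates), in situ in this document: HeLa Kyoto cells synchronized by double thymidine or nocodazole block, proteins quantified by TMT10plex mass spectrometry, three independent biological replicates.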
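For solubility change mitosis vs G1/S (difference of NP-40 vs SDS log2 ratios) in this document: synchronized HeLa Kyoto cells (double thymidine block for G1/S, nocodazole release for mitosis), protein amounts in NP-40 versus SDS lysates quantified by mass spectrometry, three biological replicates.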
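For solubility in G1/S (NP-40 vs SDS abundance) in this document: HeLa Kyoto cells arrested at G1/S by double thymidine block, proteins quantified by TMT10plex mass spectrometry in mild NP-40 versus SDS extracts, three biological replicates.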
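For thermal stability score vs G1/S (z-score of summed log2 fold changes over temperatures) in this document: synchronized HeLa Kyoto cells, proteins quantified by TMT10plex mass spectrometry, three biological replicates, mitosis taken 0.5 h after nocodazole release, G1/S directly after double thymidine block.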

Chain of OXCT1 (chain, as listed by the source): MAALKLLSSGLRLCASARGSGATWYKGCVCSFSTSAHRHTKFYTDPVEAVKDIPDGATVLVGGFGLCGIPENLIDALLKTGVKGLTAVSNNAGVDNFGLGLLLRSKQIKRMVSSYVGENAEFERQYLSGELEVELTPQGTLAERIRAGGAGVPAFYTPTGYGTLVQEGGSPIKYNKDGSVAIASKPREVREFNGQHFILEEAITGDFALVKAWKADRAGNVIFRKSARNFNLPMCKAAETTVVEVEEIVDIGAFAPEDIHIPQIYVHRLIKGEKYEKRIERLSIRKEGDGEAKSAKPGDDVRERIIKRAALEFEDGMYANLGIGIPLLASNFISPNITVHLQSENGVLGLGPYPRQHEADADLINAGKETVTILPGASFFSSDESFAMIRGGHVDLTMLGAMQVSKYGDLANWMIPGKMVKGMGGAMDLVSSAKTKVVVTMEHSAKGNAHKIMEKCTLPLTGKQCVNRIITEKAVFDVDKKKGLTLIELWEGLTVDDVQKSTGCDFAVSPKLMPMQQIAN

On to “MAQVEKRGGLLRKSSASKKPLKEKVVLMYDEIFMTEDPSKCSPRFWEELFLMKVNLEYLEGKLESLDGEELMKIKDNINCLFQHCIQALGEEHPIRVVNALQTLCALIRGVHQKNKSTSGFDIINMLMGFDKAELCMKNLMESLDSLLCAEGSESLKSLCLKLLLCLVTVTDNISQNTILEYVMINSIFEAILQILSHPPSRREHGYDAVVLLALLVNYRKYESVNPYIVKLSIVDDEATLNGMGLVIAQALSEYNRQYKDKEEEHQSGFFSALTNMVGSMFIADAHEKISVQTNEAILLALYEAVHLNRNFITVLAQSHPEMGLVTTPVSPAPTTPVTPLGTTPPSSDVISSVELPLDADVQTSNLLITFLKYSSIVMQDTKDEHRLHSGKLCLIILTCIAEDQYANAFLHDDNMNFRVNLHRMPMRHRKKAADKNLPCRPLVCAVLDLMVEFIVTHMMKEFPMDLYIRCIQVVHKLLCYQKKCRVRLHYTWRELWSALINLLKFLMSNETVLLAKHNIFTLALMIVNLFNMFITYGDTFLPTPSSYDELYYEIIRMHQSFDNLYSMVLRLSTNAGQWKEAASKVTHALVNIRAIINHFNPKIESYAAVNHISQLSEEQVLEVVRANYDTLTLKLQDGLDQYERYSEQHKEAAFFKELVRSISTNVRRNLAFHTLSQEVLLKEFSTIS [C10ORF76]”, for which the “solubility in G1/S (log2)” value in the data set on HeLa Kyoto [1] was -0.113. The figures for the melting temperature in the data set on HeLa Kyoto [2] (cell cycle stage: G1/S) and in the data set with HeLa Kyoto [2] (cell cycle stage: mitosis) were 54.1 °C and 55.3 °C, respectively. In addition, the “solubility change mitosis (log2)” value in the data set on HeLa Kyoto [3] is -0.122. The thermal stability score is -0.1 in the data set on HeLa Kyoto [4] (setting [5]) and -1.32 in the data set with HeLa Kyoto [4] (cell cycle stage: mitosis).

For “MALLVRVLRNQTSISQWVPVCSRLIPVSPTQGQGDRALSRTSQWPQMSQSRACGGSEQIPGIDIQLNRKYHTTRKLSTTKDSPQPVEEKVGAFTKIIEAMGFTGPLKYSKWKIKIAALRMYTSCVEKTDFEEFFLRCQMPDTFNSWFLITLLHVWMCLVRMKQEGRSGKYMCRIIVHFMWEDVQQRGRVMGVNPYILKKNMILMTNHFYAAILGYDEGILSDDHGLAAALWRTFFNRKCEDPRHLELLVEYVRKQIQYLDSMNGEDLLLTGEVSWRPLVEKNPQSILKPHSPTYNDEGL [UQCC1]”, the “solubility in G1/S (log2)” value in the data set with HeLa Kyoto [1] was -0.367. Besides, the results for the melting temperature in the data set on HeLa Kyoto [2] (cell cycle stage: G1/S) and in the data set with HeLa Kyoto [2] (cell cycle stage: mitosis) were 54.2 °C and 54.1 °C, respectively. Also, the “solubility change mitosis (log2)” value in the data set with HeLa Kyoto [3] was -0.25. Besides, the thermal stability score with HeLa Kyoto [4] (setting [5]) was 0.338; in the data set on HeLa Kyoto [4] (cell cycle stage: mitosis), -0.909.

For “MVLESTMVCVDNSEYMRNGDFLPTRLQAQQDAVNIVCHSKTRSNPENNVGLITLANDCEVLTTLTPDTGRILSKLHTVQPKGKITFCTGIRVAHLALKHRQGKNHKMRIIAFVGSPVEDNEKDLVKLAKRLKKEKVNVDIINFGEEEVNTEKLTAFVNTLNGKDGTGSHLVTVPPGPSLADALISSPILAGEGGAMLGLGASDFEFGVDPSADPELALALRVSMEEQRQRQEEEARRAAAASAAEAGIATTGTEDSDDALLKMTISQQEFGRTGLPDLSSMTEEEQIAYAMQMSLQGAEFGQAESADIDASSAMDTSEPAKEEDDYDVMQDPEFLQSVLENLPGVDPNNEAIRNAMGSLASQATKDGKKDKKEEDKK [PSMD4]”, the “solubility in G1/S (log2)” value in the data set with HeLa Kyoto [1] came to 0.287. The results for the melting temperature with HeLa Kyoto [2] (cell cycle stage: G1/S) and with HeLa Kyoto [2] (cell cycle stage: mitosis) were 53.3 °C and 53.9 °C, respectively. Besides, in the data set with HeLa Kyoto [3], the “solubility change mitosis (log2)” value was -0.0985. Besides, the thermal stability score in the data set on HeLa Kyoto [4] (setting [5]) is -0.808; in the data set with HeLa Kyoto [4] (cell cycle stage: mitosis), -1.22.

Consider CLTC, for which the “solubility in G1/S (log2)” value in the data set on HeLa Kyoto [1] was -0.168. The melting temperature worked out at 51.4 °C in the data set on HeLa Kyoto [2] (cell cycle stage: G1/S) and 50.6 °C with HeLa Kyoto [2] (cell cycle stage: mitosis). The “solubility change mitosis (log2)” value in the data set on HeLa Kyoto [3] was -0.171. Further, the thermal stability score in the data set on HeLa Kyoto [4] (setting [5]) was -1.37; in the data set on HeLa Kyoto [4] (cell cycle stage: mitosis) it was 1.15.

With OXCT1, the “solubility in G1/S (log2)” value with HeLa Kyoto [1] amounted to 0.23. For the same substance, the melting temperature was determined as 53 °C with HeLa Kyoto [2] (cell cycle stage: G1/S) and 52.8 °C with HeLa Kyoto [2] (cell cycle stage: mitosis). The “solubility change mitosis (log2)” value with HeLa Kyoto [3] is -0.0718. Further, the thermal stability score in the data set with HeLa Kyoto [4] (setting [5]) was -1.63; in the data set on HeLa Kyoto [4] (cell cycle stage: mitosis) it was -1.92.

As for “MGVWLNKDDYIRDLKRIILCFLIVYMAILVGTDQDFYSLLGVSKTASSREIRQAFKKLALKLHPDKNPNNPNAHGDFLKINRAYEVLKDEDLRKKYDKYGEKGLEDNQGGQYESWNYYRYDFGIYDDDPEIITLERREFDAAVNSGELWFVNFYSPGCSHCHDLAPTWRDFAKEVDGLLRIGAVNCGDDRMLCRMKGVNSYPSLFIFRSGMAPVKYHGDRSKESLVSFAMQHVRSTVTELWTGNFVNSIQTAFAAGIGWLITFCSKGGDCLTSQTRLRLSGMLDGLVNVGWMDCATQDNLCKSLDITTSTTAYFPPGATLNNKEKNSILFLNSLDAKEIYLEVIHNLPDFELLSANTLEDRLAHHRWLLFFHFGKNENSNDPELKKLKTLLKNDHIQVGRFDCSSAPDICSNLYVFQPSLAVFKGQGTKEYEIHHGKKILYDILAFAKESVNSHVTTLGPQNFPANDKEPWLVDFFAPWCPPCRALLPELRRASNLLYGQLKFGTLDCTVHEGLCNMYNIQAYPTTVVFNQSNIHEYEGHHSAEQILEFIEDLMNPSVVSLTPTTFNELVTQRKHNEVWMVDFYSPWCHPCQVLMPEWKRMARTLTGLINVGSIDCQQYHSFCAQENVQRYPEIRFFPPKSNKAYHYHSYNGWNRDAYSLRIWGLGFLPQVSTDLTPQTFSEKVLQGKNHWVIDFYAPWCGPCQNFAPEFELLARMIKGKVKAGKVDCQAYAQTCQKAGIRAYPTVKFYFYERAKRNFQEEQINTRDAKAIAALISEKLETLRNQGKRNKDEL [DNAJC10]”, the “solubility in G1/S (log2)” value in the data set on HeLa Kyoto [1] is -0.000819. Moreover, the melting temperature was 54.7 °C in the data set on HeLa Kyoto [2] (cell cycle stage: G1/S) and 55.4 °C with HeLa Kyoto [2] (cell cycle stage: mitosis). The “solubility change mitosis (log2)” value in the data set on HeLa Kyoto [3] was -0.125. Besides, the thermal stability score in the data set on HeLa Kyoto [4] (setting [5]) turned out to be 3.17; in the data set with HeLa Kyoto [4] (cell cycle stage: mitosis), 4.65.

As to “MLGVRCLLRSVRFCSSAPFPKHKPSAKLSVRDALGAQNASGERIKIQGWIRSVRSQKEVLFLHVNDGSSLESLQVVADSGLDSRELNFGSSVEVQGQLIKSPSKRQNVELKAEKIKVIGNCDAKDFPIKYKERHPLEYLRQYPHFRCRTNVLGSILRIRSEATAAIHSFFKDSGFVHIHTPIITSNDSEGAGELFQLEPSGKLKVPEENFFNVPAFLTVSGQLHLEVMSGAFTQVFTFGPTFRAENSQSRRHLAEFYMIEAEISFVDSLQDLMQVIEELFKATTMMVLSKCPEDVELCHKFIAPGQKDRLEHMLKNNFLIISYTEAVEILKQASQNFTFTPEWGADLRTEHEKYLVKHCGNIPVFVINYPLTLKPFYMRDNEDGPQHTVAAVDLLVPGVGELFGGGLREERYHFLEERLARSGLTEVYQWYLDLRRFGSVPHGGFGMGFERYLQCILGVDNIKDVIPFPRFPHSCLL [NARS2]”, the “solubility in G1/S (log2)” value in the data set with HeLa Kyoto [1] is -0.141. Further, the melting temperature was 49.7 °C with HeLa Kyoto [2] (cell cycle stage: G1/S) and 49.8 °C in the data set on HeLa Kyoto [2] (cell cycle stage: mitosis). For the same substance, the “solubility change mitosis (log2)” value in the data set with HeLa Kyoto [3] was -0.147. In addition, the results for the thermal stability score with HeLa Kyoto [4] (setting [5]) and in the data set with HeLa Kyoto [4] (cell cycle stage: mitosis) were -0.169 and 1.1, respectively.
